Measured values published in paper doi:10.1101/2022.09.07.507039.

Experiments:
[1] = molecular target: native Gli123 protein (Mycoplasma mobile); experiment: negative-staining EM with single-particle analysis
[2] = molecular target: native Gli123 protein (Mycoplasma mobile); experiment: SEC
[3] = molecular target: recombinant Gli123 (Mycoplasma mobile); experiment: SEC-SAXS

**Q.** For native Gli123 protein (natural protein), which stoichiometry N [1] is on record?
**A.** 2

**Q.** What about the stoichiometry N [2] of the same substance?
**A.** 2

**Q.** Which stoichiometry N [3] does the source give for recombinant Gli123 (natural protein) here?
**A.** 2
